These results are taken from US20070148185A1.

Assay [1] has as its target heparan sulfate proteoglycans (HSPG) expressed on the surface of HepG2 human liver cells (human). In words: 100 nM protein on HepG2 cells pretreated with Heparinase I 2.50 U/ml, against non-treated cells.
Assay [2] has the same target. Kind of assay: 100 nM protein on HepG2 cells pretreated with Heparinase I 5.00 U/ml, against non-treated cells.
The target is the same in assay [3]. Kind of assay: 100 nM protein on HepG2 cells pretreated with Heparinase I 1.25 U/ml, against non-treated cells.
The target is the same in assay [4]. Kind of assay: cell-based or functional assay.
For assay [5] the target is unchanged. Kind of assay: HepG2 cell binding assay with soluble heparin as competitive inhibitor.
For assay [6] the target is unchanged. Kind of assay: binding of His-tagged protein to fixed HepG2 cells, anti-polyhistidine detection.

On to “recombinant Circumsporozoite (CS) protein with a polyhistidine tag at the carboxyl terminus”, for which the Inhibition of Binding (%) was 57.7% in assay [1], 59.1% in assay [2] and 48.1% in assay [3].

B1: FRAP2, truncated P. falciparum FRAP containing amino acids 1-87, with C-terminal polyhistidine tag (protein)
chain: MKNRFYYNLIIKRLYTRSGGLRKPQKVTNDPESINRKVYWCFEHKPVKRTIINLIYSHNELKIFSNLLNHPTVGSSLIHELSLDGPY
In assay [4], B1 came in with a % Inhibition of invasion of HepG2 cells by P. falciparum sporozoites, FRAP2 at 10 µg/ml of 88.1%. The molecule also returned a % Inhibition of invasion of HepG2 cells by P. falciparum sporozoites, FRAP2 at 20 µg/ml in assay [4] of 92.4%. The results for the Inhibition of Binding (%) in assay [1], in assay [2] and in assay [3] were 41.4%, 49.4% and 42.3%, respectively. In addition, the reduction of binding activity in the presence of free heparin in assay [5] is 60%. In addition, in assay [6], the loss of binding activity in comparison to the full length protein came to 50%.

B2: Plasmodium falciparum Fasciclin Related Adhesive Protein (FRAP), recombinant full length protein (amino acids 1-205) with C-terminal polyhistidine tag (protein)
chain: MKNRFYYNLIIKRLYTRSGGLRKPQKVTNDPESINRKVYWCFEHKPVKRTIINLIYSHNELKIFSNLLNHPTVGSSLIHELSLDGPYTAFFPSNEAMQLINIESFNKLYNDENKLSEFVLNHVTKEYWLYRDLYGSSYQPWLMYNEKREAPEKLRNLLNNDLIVKIEGEFKHCNHSIYLNGSKIIRPNMKCHNGVVHIVDKPIIF
The molecule B2 displayed a % Inhibition of invasion of HepG2 cells by P. falciparum sporozoites, FRAP at 10 µg/ml in assay [4] of 80.9%. The molecule also yielded a % Inhibition of invasion of HepG2 cells by P. falciparum sporozoites, FRAP at 20 µg/ml in assay [4] of 89.5%. For the same molecule, the Inhibition of Binding (%) in assay [1] turned out to be 42.1%; in assay [2], 47.8%; in assay [3] it was 39.4%. Moreover, the reduction of binding activity in the presence of free heparin in assay [5] was 55%.
